One may read the stoichiometry N as a count of units in the complex or per binding partner.

The target of the assay is Aha1 I64X (pAzpa at position 64) with C-terminal V5/His6-tag (S. cerevisiae) (UniProt Q12449). As to the kind of experiment: cross-linking; in vivo photo-cross-linking (pAzpa, UV 365 nm), crosslink product immunoprecipitated by anti-V5, separated by 6% SDS-PAGE, band digested and identified by MALDI-TOF/MS.

In turn, “Aha1 I64X (pAzpa at position 64) with C-terminal V5/His6-tag (from UniProt Q12449 1-350)” registered a stoichiometry N of 2.

The record behind these values is PMC3948627.
